The subject of data set [1] is human colon carcinoma (HT-29). Description: HT-29 xenograft efficacy study. An excerpt: Healthy young male nude mice were subcutaneously injected with 5 million of HT-29 cells.
The nature of a further data set: in vivo. To be noted: female, ICR, mouse, iv, 100 umol/kg.
The next data set deals with Ramos cells (CD10pos). The class given is cell-based, human. To be noted: 24 hours, 3H-thymidine. The method, then: (§1) In addition to LNCaP, a number of B-cell lines, such as Ramos and Namalwa cells express CD10 (CD10^pos cells).
(§2) Suspension cells, BALL-1, Ramos and Namalwa cells were cultured in RPMI media containing 10% heat inactivated fetal calf serum (FCS). On the day of the study, the cells were collected, washed and resuspended at a concentration of 0.5×10^6 cells/ml in RPMI containing 10% FCS. 100 μl of cell suspension was added to 96 well plates. […] Finally 10 μl of a 100 μCi/ml ^3H-thymidine was added per well and the plates were incubated for 24 hours. The plates were harvested using a 96 well Harvester (Packard Instruments) and counted on a Packard Top Count counter. Four parameter logistic curves were fitted to the ^3H-thymidine incorporation as a function of drug molarity using Prism software to determine IC50 values.

The next data set concerns BALL-1 cells (CD10neg). Type of data set: cell-based, human. The conditions noted are these: Ball-1 (CD10neg), 24 hours, 3H-thymidine. The method, then:
as §1, §2

The subject of a further data set is Namalwa cells (CD10pos). Description: cells. The class given is cell-based, human. To be noted: 24 hours, 3H-thymidine. The method, then: as §1, §2
The test system of data set [2] is PC-3 (prostate carcinoma) cells. The conditions noted are these: PC-3, 48 hours, 3H-thymidine incorporation. The method, then:
(§3) Adherent cells, LNCaP (prostate carcinoma), HT-29 (colon carcinoma) and PC-3 (prostate carcinoma), were cultured in DMEM media containing 10% heat inactivated fetal calf serum (FCS). On the day of the study the cells were detached from the plate with a trypsin solution. The collected cells were washed and resuspended at a concentration of 0.25×10^6 cells/ml in DMEM containing 10% FCS. 100 μl of cell suspension were added to 96 well plates and the plates were incubated for 3 hours to allow the cells to adhere. […] The plates were then incubated for 24 hours, pulsed with 10 μl of a 100 μCi/ml ^3H-thymidine and incubated for an additional 24 hours (total incubation time 48 hours). The plates were harvested using a 96 well Harvester (Packard Instruments) and counted on a Packard Top Count Counter. Four parameter logistic curves were fitted to the ^3H-thymidine incorporation as a function of drug molarity using Prism software to determine IC50 values.
(§4) Prostate carcinoma cells, LNCaP and PC-3 cells or colon carcinoma cells HT-29, were incubated with increasing concentration of the indicated compounds for 48 hours and cellular proliferation was measured using the ^3H-thymidine assay.
(In general: Incorporation of labelled thymidine or its analogues reports DNA synthesis.)

Data set [3] has as its system HT-29 (colon carcinoma) cells. The conditions noted are these: HT29, 48 hours, 3H-thymidine incorporation. The method, then:
as §3, §4

Data set [4] has as its system LNCaP (prostate carcinoma) cells. The conditions noted are these: 48 hours, 3H-thymidine incorporation. The method, then: as §3, §4
Data set [5] can be described thus: SD-MTD studies, 60 days, normal mice (Example 14). To be noted: mouse, in vivo, Table 12, re-analyzed data and new data. As for the experimental part:
In the single dose Maximum Tolerated Dose (SD-MTD) studies, groups of normal mice were administered intravenous bolus doses of the prodrug. The mice were observed daily for 60 days and body weights measured twice weekly. The SD-MTD was estimated to be equal to the highest dose that produced no death in mice after 60 days.

Data set [6] is described as follows: Repeat-dose tolerability / repeat dose MTD in tumor bearing mice. The class given is in vivo, mouse. To be noted: mouse, in vivo, Table 12, re-analyzed. An excerpt: In one study, one animal in each dose group (n=8) was terminated as a possible drug-related toxicity death late in the study, at Days 58 and 57 in the low and high dose-groups respectively. The safety of the compound was evidenced by little body weight loss in either the high or low dose groups (less than 5% of the initial weight) during the 60-day observation period, in surviving animals (FIG. 14). In the other study, both the high and low dose were well tolerated. Only one animal in the high dose group (n=10) had over 15% of body weight loss at the end of the study (Day 61).
In repeat-dose studies in tumor bearing mice, groups of ten mice were dosed with various amounts of prodrug for a total of five doses at either five day or 1 week intervals. […] Thus, the prodrugs permit a much greater amount of therapeutic agent to be delivered to the body as a whole and thus to the vicinity of the target cell.

For the next data set, the system named is normal ICR mice. The experiment in a line: Single dose Maximum Tolerated Dose (SD-MTD) study, 49 days, ICR mice (Examples 5 and 6). As for the experimental part:
(§5) In a second single dose Maximum Tolerated Dose (SD-MTD) study, groups of five normal ICR mice were administered intravenous bolus doses of Suc-Leu-Ala-Leu-Dox. The mice were observed daily for 49 days and body weights measured twice weekly.
(§6) In a second single dose Maximum Tolerated Dose (SD-MTD) study, groups of five normal ICR mice were administered intravenous bolus doses of Suc-Leu-Ala-Gly-Dox. The mice were observed daily for 49 days and body weights measured twice weekly.

Assay in data set [7]: as above
To be noted: mouse, in vivo, iv, SD-MTD (mg/kg), intravenous bolus, ICR mice, Day 49. The method, then: as §5, §6

The structures appear in SMILES notation.

Experimental for in vivo: Plasma was obtained from three individual animals in each group at 5 minutes, 1, 2, 4, or 6 hr.

As to `COc1cccc2c1C(=O)c1c(O)c3c(c(O)c1C2=O)C[C@@](O)(C(=O)CO)C[C@@H]3O[C@H]1C[C@H](NC(=O)CNC(=O)[C@H](C)NC(=O)[C@H](CC(C)C)NC(=O)CCC(=O)O)[C@H](O)[C@H](C)O1` [Suc-Leu-Ala-Gly-Dox], the “Toxicity (Weight Loss > 20%)” value in [1] (40 mg/kg every 7 days for 5 doses) and in data set [1] (67 mg/kg every 7 days for 5 doses) was 0/7 each time. The molecule also returned an AUC in “in vivo” of 310 µM·h. Besides, the IC50 in the data set with Ramos cells (CD10pos) stood at 22.7 µM; in the data set on BALL-1 cells (CD10neg), 23.3 µM; in the data set on Namalwa cells (CD10pos), 17.3 µM; in data set [2], 39 µM; in data set [3] it was 32 µM; in data set [4], 15 µM. Further, the MTD in data set [5] (SD MTD (mg/kg), value in parentheses: doxorubicin equivalent dose) was > 141 mg/kg; in [5] (read-out: SD MTD), > 220 mg/kg; in data set [6] (Repeat Dose MTD (mg/kg), value in parentheses: doxorubicin equivalent dose, Q 5 D × 5 or Q 7 D × 5) it was > 70 mg/kg; in data set [6] (Q 5 D × 5 or Q 7 D × 5 as given per compound, read-out: Repeat Dose MTD), > 110 mg/kg; in [7], ≥ 220 mg/kg. For the same molecule, in the data set with normal ICR mice (any dose level), the “acute toxicity, within 24 hours” value was “no acute toxicity”. In addition, the “mortalities, morbidity or significant body weight loss over the 49 day study” value in the data set with normal ICR mice (any dose level up to 220 mg/kg) was “no mortalities, morbidity or significant body weight loss”. The “SD-MTD Molar Ratio (Dox =)” value with normal ICR mice (molar basis versus doxorubicin alone) was determined as 8.8.

The term AUC denotes concentration integrated over time. A lower AUC goes with less exposure. In general, IC50 refers to the concentration that inhibits the measured activity by half. Lower therefore signals greater potency.
